Reference: the supplement of paper PMC9170038

Tested on: MS2 coat protein
Experiment: apparent KD of MS2 coat protein; designed switch direction (-1 OFF switch, 1 ON switch): -1; higher = weaker reporter binding
In short: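 For each design, the apparent KD is the median over clusters of curves fitted to normalised cluster fluorescence. Clusters held RNA switches with common flanks, transcribed on Illumina chips by stalled E. coli RNA polymerase. These were titrated with SNAP-549-labelled MS2 coat protein, doubling from 0.7 or 1.5 nM to 3 µM, without input, with 200 uM small-molecule ligand, or with an oligonucleotide input.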

[1] = Eterna round: R95, input ligand: FMN 200 uM
[2] = Eterna round: R95, input ligand: microRNA oligo, concentration not stated
[3] = Eterna round: R95, input ligand: none

| Sequence | apparent KD of MS2 coat protein (input ligand: FMN 200 uM) [nM] | apparent KD of MS2 coat protein (input ligand: none) [nM] | apparent KD of MS2 coat protein [1] [nM] | apparent KD of MS2 coat protein [2] [nM] | apparent KD of MS2 coat protein [3] [nM] |
| --- | --- | --- | --- | --- | --- |
| GGUGUGAGGCAGGAUAUGCAAUAUGUAAGUAAUGCAGAAGGGUCUACAUGAGGAUCACCCAUGUGUGCGGUAGA [Ex6 #3] (Eterna round: R97, puzzle: Exclusion 6) | 251 | 140 |  |  |  |
| GGUUAACAUGAGGAUCACCCAUGUGAGGAUAUGUUCAGGAUGAUAAAUAGAAGAGAUAAUAGAAGGCACUUUGG [Bubbles5] (Eterna round: R97, puzzle: Exclusion 1) | 57.6 | 39.9 |  |  |  |
| GGUUGACAUGAGGAUCACCCAUGUGAGGAUAUGCGAGAGAAAAAAGUGAGGAAGAAAAGUAGAAGGCGCUGACG [salish99-ex1_r3_001] (puzzle: Exclusion 1) |  |  | 59.9 | 49 | 57.1 |
| GGUUGACAUGAGGAUCACCCAUGUGAGGAUAUGCGAGAGAAAAAAGUGAGGAAGGAAUGCAGAAGGCGCUGUCG [salish99-ex1_r3_018] (puzzle: Exclusion 1) |  |  | 43.3 | 54.3 | 57.7 |
| GGUUGGCGAGGAUAUACAUGAGGAUCACCCAUGUGAGAGAAAAAAGUGAGGAAGAAAAGUAGAAGGCGCUGACC [salish99_ex3_r3_048] (puzzle: Exclusion 3) |  |  | 256 | 44.6 | 53.9 |
| GGUUGGCGAGGAUAUACAUGAGGAUCACCCAUGUGAGAGAAAAAAGUGAGGAAGAAAAGUAGAAGGCGUUGACG [salish99_ex3_r3_052] (puzzle: Exclusion 3) |  |  | 66.2 | 48.3 | 42.8 |
| GGUUGGCGAGGAUAUACAUGAGGAUCACCCAUGUGGUCCUGUAAAAAAAAAAACCUUUGUAGAAGGCGCGGGUC [salish99_ex3_r4_034] (Eterna round: R97, puzzle: Exclusion 3) | 211 | 233 |  |  |  |
| GGUUGUUUUUUCCUUUCUUACAUGAGGAUCACCCAUGUUUCUUGUCGUGCUCGCGUUGCUCGUCUGUCUGUCUGUUG [salish99_TOv1_r3_074] (puzzle: Sensor v3, turn-off variant 1) |  |  | 49.9 | 36.6 | 55.6 |
| GGUUUCGUAGGAUAUCAUCGAGUAAACAUGAGGAUCACCCAUGUGAGGUCGGCUUGCUCUUGAGAAGGAUGAAUGG [EX5 B.13] (Eterna round: R97, puzzle: Exclusion 5) | 40.1 | 34 |  |  |  |
| GUAAAGGUAGGAUAUACGAAGAAAAAGGGUAGAAUAAUAACACAUGAGGAUCACCCAUGUAGAAGGACCAAAGG [Mat - Exclusion 2 - Mod of my Tesla design - D8] (puzzle: Exclusion 2) |  |  | 49.8 | 26.4 | 23.8 |
| GUAAAGUGAGGAUAUGGUAAAGUAAUUAUUUAGUAAUUAAUCCAGAAGGCACAUGAGGAUCACCCAUGUAAAUG [Mat - Exclusion 4 - D96] (puzzle: Exclusion 4) |  |  | 44.6 | 26.1 | 28.7 |
| GUAAAGUGAGGAUAUGGUGAGUAGUGCCUGAGCGCUGCUCACCAGAAGGCACAUGAGGAUCACCCAUGUAUAGC [Mat - Exclusion 4 - Mod of JL - D17] (puzzle: Exclusion 4) |  |  |  | 14 |  |
| GUAGAGUAAGGAUAUCAUGAAUAGGAUAGAAUGGUUAGAAAUGAGAAGGUACAUGAGGAUCACCCAUGUAAUGU [Excluse me!!!! 12 - Jieux - Exclusion 4] (puzzle: Exclusion 4) |  |  | 20.5 | 21.6 | 17.1 |
| GUAGAGUAAGGAUAUGUUGAAUAGGAUAGAAUGGUUAGAAAGCAGAAGGUACAUGAGGAUCACCCAUGUAAUGU [Excluse me!!!! 14 - Jieux - Exclusion 4] (puzzle: Exclusion 4) |  |  |  | 21.4 |  |
